{"source": "the DeepSol protein solubility set", "data": [{"experiment": "soluble on expression in E. coli; label from the status in PepcDB or PDB records", "values": [{"sequence": "MRKQKNRQRNRGRSQEIALFLDPLATSLKWLQAGRQITTEAFHNPEAGENQYRLISSGFRLSIFGRGAVRQGMNKERFTILLGGDVAVSDRLKRAVVNSRVIAADGGMRHATPLGLTPELWVGDFDSANQELLDAWPDVTRQPYPAAKAVTDGEIAVSEALLRGAHSLLLVGALGGARSDHALQHLLYAVALAERGFEVTLTSGEEEARPLLAGSLAIDLPAGSLFSVAGFTALEGLDIGNVRYPLNDFALAFGSSRTISNVANGGPVHFSLKSGKAIVLARPYDLTGALEHHHHHH", "soluble on expression in E. coli": "soluble"}, {"sequence": "MARFSSVLIYDGECPYCSVAAKALEQVDDIGAISWYDESAQSFLTAQFDEPPFAMVLVDRPAQQVYAGRAAAEELAGRAGLPDLVGSLVRDNYEKIAHVVGLASGRGREPDDVHERYVLADDAQDRFDTLAKDAVDRDIRADALEHHHHHH", "soluble on expression in E. coli": "soluble"}, {"sequence": "MLLAHISDTHFRSRGEKLYGFIDVNAANADVVSQLNALRERPDAVVVSGDIVNCGRPEEYQVARQILGSLNYPLYLIPGNHDDKALFLEYLQPLCPQLGSDANNMRCAVDDFATRLLFIDSSRAGTSKGWLTDETISWLEAQLFEGGDKPATIFMHHPPLPLGNAQMDPIACENGHRLLALVERFPSLTRIFCGHNHSLTMTQYRQALISTLPGTVHQVPYCHEDTDPYYDLSPASCLMHRQVGEQWVSYQHSLAHYAGPWLYDENISCPTEER", "soluble on expression in E. coli": "soluble"}, {"sequence": "MRIPRIYHPEPLTSHSHIALCEDAANHIGRVLRMGPGQALQLFDGSNQVFDAEITSASKKSVEVKVLEGQIDDRESPLHIHLGQVMSRGEKMEFTIQKSIELGVSLITPLFSERCGVKLDSERLNKKLQQWQKIAIAACEQCGRNRVPEIRPAMDLEAWCAEQDEGLKLNLHPRASNSINTLPLPVERVRLLIGPEGGLSADEIAMTARYQFTDILLGPRVLRTETTALTAITALQVRFGDLG", "soluble on expression in E. coli": "soluble"}, {"sequence": "MVAPGSVTSRLGSVFPFLLVLVDLQYEGAECGVNADVEKHLELGKKLLAAGQLADALSQFHAAVDGDPDNYIAYYRRATVFLAMGKSKAALPDLTKVIQLKMDFTAARLQRGHLLLKQGKLDEAEDDFKKVLKSNPSENEEKEAQSQLIKSDEMQRLRSQALNAFGSGDYTAAIAFLDKILEVCVWDAELRELRAECFIKEGEPRKAISDLKAASKLKNDNTEAFYKISTLYYQLGDHELSLSEVRECLKLDQDHKRCFAHYKQVKKLNKLIESAEELIRDGRYTDATSKYESVMKTEPSIAEYTVRSKERICHCFSKDEKPVEAIRVCSEVLQMEPDNVNALKDRAEAYLIEEMYDEAIQDYETAQEHNENDQQIREGLEKAQRLLKQSQKRDYYKILGVKRNAKKQEIIKAYRKLALQWHPDNFQNEEEKKKAEKKFIDIAAAKEVLSDPEMRKKFDDGEDPLDAESQQGGGGNPFHRSWNSWQGFNPFSSGGPFRFKFHFN", "soluble on expression in E. coli": "soluble"}, {"sequence": "GSHMKHTELRAAVLDALEKHDTGATFFDGRPAVFDEADFPAVAVYLTGAEYTGEELDSDTWQAELHIEVFLPAQVPDSELDAWMESRIYPVMSDIPALSDLITSMVASGYDYRRDDDAGLWSSADLTYVITYEM", "soluble on expression in E. coli": "soluble"}, {"sequence": "MADKENATKIEKMPNSETMKGISSEDVPFEEDIIRNPTSVNCWQRYIDHKLQNKSPAKQMFLIYERALAVFERSYKLWYHYLKYRESTIVNKCPTDNSWRALCDTYERCLMRLHKMPRIWICYCEVMIKRGLITETRRVFDRALRSLPVTQHMRIWTLYIGFLTSHDLPETTIRVYRRYLKMNPKAREDYVEYLIERDQIDEAAKELTTLVNQDQNVSEKGRTAHQLWTQLCDLISKNPVKIFSLNVDAIIRQGIYRYTDQVGFLWCSLADYYIRSAEFERARDVYEEAIAKVSTVRDFAQVYDAYAAFEEREVSIMMQEVEQSGDPEEEVDLEWMFQRYQHLMERKNELMNSVLLRQNPHNVGEWLNRVNIYEGNYNKQIETFKEAVKSVNPKIQVGKVRDLWIGLAKLYEDNGDLDAARKTFETAVISQFGGVSELANVWCAYAEMEMKHKRAKAALTVMQRACVVPKPGDYENMQSVQARVHRSPILWAMYADYEECCGTVESCRKVYDKMIELRVASPQMIMNYAMFLEENEYFELAFQAYEKGIALFKWPGVFDIWNTYLVKFIKRYGGKKLERARDLFEQCLENCPPTHAKYIFLLYAKLEEEHGLARHALSIYNRACSGVDRADMHSMYNIYIKKVQEMYGIAQCRPIFERAISELPEDKSRAMSLRYAQLETTVGEIDRARAIYAHAAEISDPKVHVKFWDTWKNFEVAHGNEATVRDMLRVRRSVEASYNVNVTLTSVQMRVDAERKAQETTTSSNPMDSLDQQQQQPSDGAGSITQVSMNKGNISFVRGAGKTVQQNTTENPDEIDLDEDDDDEEDDGGDADISVKVVPAQIFGNLKLAEEEEEA", "soluble on expression in E. coli": "soluble"}, {"sequence": "MGSDKIHHHHHHMKKLLRNLFGSGREEEKRSASDAMSGREQIVTNSEKSNLSTDPDHVNRQADTLKFDAIRAMNMGELVFATEALRKAMELRPEFETRYYLTEALLRRHLTEEALAQMNLLLEEVPMHTATLLNRAKLRLEQNDPSRALEDCGTGIESTSELEEQALFLYYGASAMKDMKNLKDALCLLKQAIEKNDAFIPARLLRARILIDLERYEEATQDLDWVAASDPEEEQVPMLRARLFMLEGKQQNAIQAYEELLSLDPFNEEGHCGIATLMIKEGRSAEAETFLREAIEEMPVQRNLILMLVEILENKGQTQEAAEWRAKLPEAEVESEAVNFNDLYKGNLY", "soluble on expression in E. coli": "not soluble"}, {"sequence": "MAMRHLSRSRDVTKRSTKKYIEEPLYNRLFKDGGTEVKVRQQLNQFLKGTKHVFKWEVGDTIKKLRNRGLYYPALKLSEVMEERGMNKTVSDQAIHLDLVAKAREITAGENYFVDLPETSKTELTYGSLLNCYCKELLTEKAEGLLNKMKELNITPSSMSYNSLMTLYTKTGETEKVPAMIQELKAENVMPDSYTYNVWMRALAATNDISGVERVIEEMNRDGRVAPDWTTYSNMASIYVDAGLSQKAEKALQELEMKNTQRDFTAYQFLITLYGRLGKLTEVYRIWRSLRLAIPKTSNVAYLNMIQVLVKLNDLPGAETLFKEWQANCSTYDIRIVNVLIGAYAQEGLIQKANELKEKAPRRGGKLNAKTWEIFMDYYVKSGDMARALECMSKAVSIGKGDGGKWLPSPETVRALMSYFEQKKDVNGAENLLEILKNGTDNIGAEIFEPLIRTYAAAGKSHPAMRRRLKMENVEVNEATKKLLDEVSQDV", "soluble on expression in E. coli": "soluble"}, {"sequence": "MAQLTHINAAGEAHMVDVSAKAETVREARAEAFVTMRSETLAMIIDGRHHKGDVFATARIAGIQAAKRTWDLIPLCHPLMLSKVEVNLQAEPEHNRVRIETLCRLTGKTGVEMEALTAASVAALTIYDMCKAVQKDMVIGPVRLLAKSGGKSGDFKVEADD", "soluble on expression in E. coli": "soluble"}, {"sequence": "GTKMEPMEYLVVDVPSEFQGAIIEKMGPRKGEMTSLQPMGETVRLEFVVPARGLIGLRGELLTETRGTAVMTHTFHDYAPYKGDIPGRKNGVLIAMELGETTAYALDALQPRGILFIGPGVEVYGGMI", "soluble on expression in E. coli": "not soluble"}, {"sequence": "MPRYYEDKPEGGACAGVKEDLGACLLQSACVLQEGKSPRQCLKEGNCRALQYSFFECKRSMLDARSRFRGRKGY", "soluble on expression in E. coli": "not soluble"}, {"sequence": "MSLVQWISPLDNSIVIASKVKILRNIKGIKFTKLLNEEEFNDLLSMVLGRLKEIDILDKCYVVKLKDGEEKIIDYYKENFGLIKYFENKDNLIFIMNKNGEFNILLNEEEHIGIECTNSGLSLREVYSKVDNLDDLIEEKIHYSFDSELGYLTSNIKNLGTALRAKVFIHLPLLSSNNLIRIIKNALKEEGITLKSIYNSGNKDVGNIYEVSNIKTLGMSEKDILDSLISITNKLILREKNQRDNLSKDEYIELKDDILRSLGVLRNTYSIDREGHHHHHH", "soluble on expression in E. coli": "not soluble"}, {"sequence": "APSYRVKRADIATCTEAAVVNAANARGTVGDGVCRAVAKKWPSAFKGAATPVGTIKTVMCGSYPVIHAVAPNFSATTEAEGDRELAAVYRAVAAEVNRLSLSSVAIPLLSTGVFSGGRDRLQQSLNHLFTAMDATDADVTIYCRDKSWEKKIQEAIDMRTAVELLNDDVELTTDLVRVHPDSSLVGRKGYSTTDGSLYSYFEGTKFNQAAIDMAEILTLWPRLQEANERICLYALGETMDNIGSKCPVNDSDSSTPPRTVPCLCRYAMTAERIARLRSHQVKSMVVCSSFPLPKYHVDGVQKVKCEKVLLFDPTVPSVVSPRKYAASTTDHSDRSLRGFDLDWTTDSSSTASDTMSLPSLQSCDIDSIYEPMAPIVVTADVHPEPAGIADLAADVHPEPADHVDLENPIPPPRPKRAAYLASRAAERPVPAPRKPTPAPRTAFRNKLPLTFGDFDEHEVDALASGITFGDFDDVLRLGRAGA", "soluble on expression in E. coli": "not soluble"}, {"sequence": "MDDIVPDVLDAVPAGTIKVIYGDDLEVKQGNELTPTQVKDQPIVSWSGLEGKSNLLTLLMVDPDAPTRQDPKYREILHWSVVNIPGSNENPSGGHSLADYVGSGPPKDTGLHRYIFLLYRQENKIEETPTISNTTRTGRLNFNARDFAAKHGLGEPIAANYYQAQYDDYVPIRNKTIVG", "soluble on expression in E. coli": "soluble"}, {"sequence": "MGSDKIHHHHHHMGKLVVQGGAVLEGEVEISGSKNAALPIMAAAILCDEEVILKNVPRLQDVFVMIDILRSIGFRVEFEENELKIKRENDISQEVPYELVRKMRASFNVLGPIAVRTGRAKVALPGGCSIGVRPVDFHLEGLKKMGFSIKVEHGFVEACFERRIDYVTITLPFPSVGATEHLMTTAALLKGARVVIENAAMEPEIVDLQNFINRMGGHIEGAGTSRIVIEGVEKMQGVEYSIIPDRIEAGTYLVAIAASRGKGLVKNVNPDHLTNFFEKLEETGAKLKVLGNEVEIEMRERPKAVDVTTNPYPGFPTDLQPQMMAYLSTASGVSVITENVFKTRFLHVDELKRMGADIEVSGNVAIVKGVEKLSGAPVEGTDLRATAALLIAGIIADGVTEISNVEHIFRGYEDVIDKFSELGAKIEYVEKEN", "soluble on expression in E. coli": "not soluble"}, {"sequence": "MSGKRISREKLTIKKMIDLYQAKCPQASAEPEHYEALFVYAQKRLDKCVFGEEKPACKQCPVHCYQPAKREEMKQIMRWAGPRMLWRHPILTVRHLIDDKRPVPELPEKYRPKKPRE", "soluble on expression in E. coli": "not soluble"}, {"sequence": "MSLQILTRKMPGQFKVGCMDLMIEEAAGSGLFMRLFFPTDSEITGPSSLPVWIPRPEYAYGVGEYLGHSPHQMDLISSLVIGDKRVDCIDNAQLSTKSDKWPVLVFSHGLGGSRTFYSTYCTSLASHGYVVAAVEHRDSSACWTYKLVEKNGTLVEKPMKIKLVDRNDKDQFKIRNEQVGKRAEECAKAVKILEQLDSGNVKDKVIIGNNANLEFFKNKLLTTTASIIGHSFGGATSIASSSSDFQKAIVLDGWMYPLDQNQQEQAKQPIMFLNVGDWQWNENLEVMRKILPNNEGNILLTLSGAVHQSFTDFPFVFPNWLAKQFGVHGPTEPYLCMQSAIELTLSFLKDGKEGHHHHHH", "soluble on expression in E. coli": "not soluble"}, {"sequence": "MSERLSITPLGPYIGAQISGADLTRPLSDNQFEQLYHAVLRHQVVFLRDQAITPQQQRALAQRFGELHIHPVYPHAEGVDEIIVLDTHNDNPPDNDNWHTDVTFIETPPAGAILAAKELPSTGGDTLWTSGIAAYEALSVPFRQLLSGLRAEHDFRKSFPEYKYRKTEEEHQRWREAVAKNPPLLHPVVRTHPVSGKQALFVNEGFTTRIVDVSEKESEALLSFLFAHITKPEFQVRWRWQPNDIAIWDNRVTQHYANADYLPQRRIMHRATILGDKPFYRAGLEHHHHHH", "soluble on expression in E. coli": "soluble"}]}]}
